The supplement of paper PMC7877785
± gives the uncertainty stated by the source.

Assay: self-splicing fitness, log relative to wild type (ln ratio); higher = more splicing; Tetrahymena group I intron in knt gene, E. coli kanamycin selection, DiMSum; sequences stand for … in CUCUCU…GGAGGGAAAAGUUAUCAGGCAUGCACCUGGUAGCUAGUCUUUAAACCAAUAGAUUGCAUCGGUUUAAAAGGCAAGACCGUCAAAUUGCGGGAAAGGGGUCAACAGCCGUUCAGUACCAAGUCUCAGGGGAAACUUUGAGAUGGCCUUGCAAAGGGUAUGGUAAUAAGCUGACGGACAUGGUCCUAACCACGCAGCCAAGUCCUAAGUCAACAGAUCUUCUGUUGAUAUGGAUGCAGUUCACAGACUAAAUGUCGGUCGGGGAAGAUGUAUUCUUCUCAUAAGAUAUAGUCGGACCUCUCCUUAAUGGGAGCUAGCGGAUGAAGUGAUGCAACACUGGAGCCGCUGGGAACUAAUUUGUAUGCGAAAGUAUAUUGAUUAGUUUUGGAGUACUCGUGGUCG
In short: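 Colonies from six replicate transformations of E. coli BL21(DE3) were pooled and amplicon-sequenced on an Illumina HiSeq 2500. The library placed an intron with all eight P1ex-region nucleotides randomised inside the knt kanamycin-resistance gene on pET-22b(+), and cells grew overnight at 37°C or 30°C on LB agar with or without 25 μg/mL kanamycin (plus 100 μg/mL carbenicillin, 50 μM IPTG, 0.2% rhamnose). Fitness is the DiMSum error-weighted combination of wild-type-normalised replicate fold changes, kanamycin versus none.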

Row | Sequence | self-splicing fitness (ln) (30 °C) | self-splicing fitness (ln) (37 °C)
1 | CGUGAGCAAUAUUACGGUUA | -3.15 ± 0.33 | -2.98 ± 0.29
2 | CGUGAGCAAUAUUACGUAUU | -3.5 ± 0.4 | -3.11 ± 0.35
3 | CGUGAGCAAUAUUACGUGAU | -3.8 ± 0.24 | -3.21 ± 0.23
4 | CGUGAGCAAUAUUACGUUCG | -2.61 ± 0.15 | -3.09 ± 0.28
5 | CGUGAGCAAUAUUACGUUGU | -4.24 ± 0.26 | -1.58 ± 0.17
6 | CGUGAGCAAUAUUACGUUUU | -3.42 ± 0.16 | -3.73 ± 0.37
7 | CGUUAGCAAUAUUACGACAG | 0.473 ± 0.14 | -0.134 ± 0.15
8 | CGUUAGCAAUAUUACGACUG | -0.369 ± 0.12 | 0.327 ± 0.14
9 | CGUUAGCAAUAUUACGAUAG | -0.0326 ± 0.15 | -0.211 ± 0.14
10 | CGUUAGCAAUAUUACGAUCC | -1.74 ± 0.19 | -0.851 ± 0.21
11 | CGUUAGCAAUAUUACGAUCG | -0.9 ± 0.11 | -1.12 ± 0.14
12 | CGUUAGCAAUAUUACGCACU | -2.03 ± 0.12 | -0.906 ± 0.11
13 | CGUUAGCAAUAUUACGCAUC |  | -2.72 ± 0.41
14 | CGUUAGCAAUAUUACGCCAG | -0.657 ± 0.22 | 0.474 ± 0.35
15 | CGUUAGCAAUAUUACGCUGA | -2.78 ± 0.3 | -2.66 ± 0.29
16 | CGUUAGCAAUAUUACGGAUC | -2.18 ± 0.12 | -1.13 ± 0.19
17 | CGUUAGCAAUAUUACGGGUG | -0.565 ± 0.057 | 0.0881 ± 0.071
18 | CGUUAGCAAUAUUACGGUAC | -2.98 ± 0.24 | -2.96 ± 0.38
19 | CGUUAGCAAUAUUACGUAAC |  | -2.3 ± 0.46
20 | CGUUAGCAAUAUUACGUACA | -0.358 ± 0.11 | -0.966 ± 0.12
21 | CGUUAGCAAUAUUACGUACU | -0.583 ± 0.078 | 0.0264 ± 0.097
22 | CGUUAGCAAUAUUACGUAGA | -2.87 ± 0.18 | -1.9 ± 0.22
23 | CGUUAGCAAUAUUACGUAGU | -4.27 ± 0.25 | -2.85 ± 0.23
24 | CGUUAGCAAUAUUACGUGAG | -1.59 ± 0.087 | -0.0698 ± 0.13
25 | CGUUAGCAAUAUUACGUUGC | -3.94 ± 0.34 | -1.95 ± 0.18

Row | Sequence | self-splicing fitness (ln) (30 °C) | self-splicing fitness (ln) (37 °C)
26 | CUAAAGCAAUAUUACGAAAA | -3.34 ± 0.41 | -2.19 ± 0.35
27 | CUAAAGCAAUAUUACGAAGA | -2.46 ± 0.27 | -1.61 ± 0.3
28 | CUAAAGCAAUAUUACGAAGG | -1.03 ± 0.095 | -0.0689 ± 0.14
29 | CUAAAGCAAUAUUACGACAG | 0.277 ± 0.093 | 0.751 ± 0.12
30 | CUAAAGCAAUAUUACGAGAG | -1.13 ± 0.075 | -0.601 ± 0.099
31 | CUAAAGCAAUAUUACGAGGG | -2.22 ± 0.094 | -2.22 ± 0.16
32 | CUAAAGCAAUAUUACGAGGU | -4.41 ± 0.24 | -2.81 ± 0.25
33 | CUAAAGCAAUAUUACGAUCG | 0.485 ± 0.073 | 0.485 ± 0.1
34 | CUAAAGCAAUAUUACGAUGC | -3.96 ± 0.3 | -3.1 ± 0.33
35 | CUAAAGCAAUAUUACGAUUU | -4.23 ± 0.28 | -2.46 ± 0.32
36 | CUAAAGCAAUAUUACGCAAA | -3.47 ± 0.25 | 
37 | CUAAAGCAAUAUUACGCUCC | -3.15 ± 0.29 | -2.29 ± 0.35
38 | CUAAAGCAAUAUUACGGAUU | -4.39 ± 0.22 | -2.62 ± 0.23
39 | CUAAAGCAAUAUUACGGGAC | -2.11 ± 0.13 | -0.677 ± 0.13
40 | CUAAAGCAAUAUUACGGUCC | -4.33 ± 0.47 | -2.2 ± 0.35
41 | CUAAAGCAAUAUUACGUAAC | -2.86 ± 0.12 | -1.62 ± 0.12
42 | CUAAAGCAAUAUUACGUCGA |  | -1.99 ± 0.2
43 | CUAAAGCAAUAUUACGUCUC |  | -1.93 ± 0.46
44 | CUAAAGCAAUAUUACGUGCA | -2.77 ± 0.2 | -1.91 ± 0.18
45 | CUAAAGCAAUAUUACGUGCC | -4.57 ± 0.29 | -2.25 ± 0.18
46 | CUAAAGCAAUAUUACGUGGU | -3.41 ± 0.12 | -2.73 ± 0.15
47 | CUAAAGCAAUAUUACGUGUA | -3.82 ± 0.19 | -3.2 ± 0.23
48 | CUACAGCAAUAUUACGACCG | 0.86 ± 0.11 | -0.315 ± 0.14
49 | CUACAGCAAUAUUACGAGAA | -2.84 ± 0.46 | -1.92 ± 0.28
